Experimental data as given in paper PMC6155126.

Columns and labels:
[1] = molecular target: Ku70/80 (Ku70 subunit);Ku70/80 (Ku80 subunit);PAXX (cleaved) (Homo sapiens;Homo sapiens;Homo sapiens, UniProt P12956;P13010;Q9BUH6 1-609;1-732;1-204, ||); test: EMSA supershift; 20 nM Ku, 0.5 µM PAXX; EMSA: 50 mM Tris-HCl pH 7.5, 100 mM KCl, 2.5 mM MgCl2, 1 mM DTT, 4% glycerol, 0.05% Triton X-100, 0.1 mg/ml BSA, 10-20 nM DNA, 30 min at 25 °C; 4-5% native PAGE, 0.5x TBE, 4 °C; conditions: protein: recombinant;recombinant;recombinant; tags: FLAG;FLAG;GST tag cleaved (PreScission); copies: 1;1;2; label: 5' IRDye 700 on one strand; 5-nt gap
[2] = molecular target: Ku70/80 (Ku70 subunit);Ku70/80 (Ku80 subunit);Pol λ WT;PAXX (cleaved) (Homo sapiens;Homo sapiens;Homo …, UniProt P12956;P13010;Q9UGP5;Q9BUH6 1-609;1-732;1-575;1-204, |||); test: as above; conditions: protein: recombinant;recombinant;recombinant;recombinant; tags: FLAG;FLAG;FLAG;GST tag cleaved (PreScission); copies: 1;1;1;2; label: 5' IRDye 700 on one strand; 5-nt gap
[3] = molecular target: Ku70/80 (Ku70 subunit);Ku70/80 (Ku80 subunit);Pol λ WT (Homo sapiens;Homo sapiens;Homo sapiens, UniProt P12956;P13010;Q9UGP5 1-609;1-732;1-575, ||); test: EMSA supershift; 20 nM Ku; EMSA: 50 mM Tris-HCl pH 7.5, 100 mM KCl, 2.5 mM MgCl2, 1 mM DTT, 4% glycerol, 0.05% Triton X-100, 0.1 mg/ml BSA, 10-20 nM DNA, 30 min at 25 °C; 4-5% native PAGE, 0.5x TBE, 4 °C; conditions: protein: recombinant;recombinant;recombinant; tags: FLAG;FLAG;FLAG; copies: 1;1;1; label: 5' IRDye 700 on one strand; 5-nt gap
Chain of Ku70/80 (Ku70 subunit);Ku70/80 (Ku80 subunit);Pol λ WT (P12956 whole entry, chain 1 of 3): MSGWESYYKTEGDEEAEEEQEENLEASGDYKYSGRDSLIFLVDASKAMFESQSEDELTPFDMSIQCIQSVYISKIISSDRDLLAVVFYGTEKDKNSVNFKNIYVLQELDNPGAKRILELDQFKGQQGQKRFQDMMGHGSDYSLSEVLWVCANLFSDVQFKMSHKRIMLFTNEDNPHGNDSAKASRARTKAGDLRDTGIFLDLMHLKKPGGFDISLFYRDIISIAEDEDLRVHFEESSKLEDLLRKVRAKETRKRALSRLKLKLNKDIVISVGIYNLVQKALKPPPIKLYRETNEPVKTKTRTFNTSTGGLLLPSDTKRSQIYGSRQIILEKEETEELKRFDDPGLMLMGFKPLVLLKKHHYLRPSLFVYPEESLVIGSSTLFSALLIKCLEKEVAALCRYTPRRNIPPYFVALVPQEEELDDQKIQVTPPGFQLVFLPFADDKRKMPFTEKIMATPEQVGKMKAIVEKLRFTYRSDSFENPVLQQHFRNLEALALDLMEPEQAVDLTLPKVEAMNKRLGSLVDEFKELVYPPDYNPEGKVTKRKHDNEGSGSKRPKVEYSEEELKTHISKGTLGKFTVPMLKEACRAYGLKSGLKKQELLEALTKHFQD
Chain of Ku70/80 (Ku70 subunit);Ku70/80 (Ku80 subunit);Pol λ WT (P13010 whole entry, chain 2 of 3): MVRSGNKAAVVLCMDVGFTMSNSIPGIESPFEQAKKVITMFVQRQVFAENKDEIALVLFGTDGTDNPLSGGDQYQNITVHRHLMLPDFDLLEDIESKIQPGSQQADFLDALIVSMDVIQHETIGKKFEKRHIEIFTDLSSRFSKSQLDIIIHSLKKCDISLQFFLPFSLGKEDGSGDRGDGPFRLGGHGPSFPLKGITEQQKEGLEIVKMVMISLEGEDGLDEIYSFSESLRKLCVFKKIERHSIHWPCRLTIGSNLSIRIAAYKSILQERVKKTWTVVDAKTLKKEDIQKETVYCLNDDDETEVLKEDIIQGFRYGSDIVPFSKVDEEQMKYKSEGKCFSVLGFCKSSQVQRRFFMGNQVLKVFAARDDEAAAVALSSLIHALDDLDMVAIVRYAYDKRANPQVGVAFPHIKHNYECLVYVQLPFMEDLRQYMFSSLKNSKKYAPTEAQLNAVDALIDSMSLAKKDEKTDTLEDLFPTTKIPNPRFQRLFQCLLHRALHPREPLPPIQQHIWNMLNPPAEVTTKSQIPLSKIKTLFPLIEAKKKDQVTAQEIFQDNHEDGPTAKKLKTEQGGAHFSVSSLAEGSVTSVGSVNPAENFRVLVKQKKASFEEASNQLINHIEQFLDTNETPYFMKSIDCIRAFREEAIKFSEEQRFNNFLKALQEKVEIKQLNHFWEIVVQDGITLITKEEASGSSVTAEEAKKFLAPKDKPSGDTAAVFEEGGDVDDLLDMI
Chain of Ku70/80 (Ku70 subunit);Ku70/80 (Ku80 subunit);Pol λ WT (Q9UGP5 whole entry, chain 3 of 3): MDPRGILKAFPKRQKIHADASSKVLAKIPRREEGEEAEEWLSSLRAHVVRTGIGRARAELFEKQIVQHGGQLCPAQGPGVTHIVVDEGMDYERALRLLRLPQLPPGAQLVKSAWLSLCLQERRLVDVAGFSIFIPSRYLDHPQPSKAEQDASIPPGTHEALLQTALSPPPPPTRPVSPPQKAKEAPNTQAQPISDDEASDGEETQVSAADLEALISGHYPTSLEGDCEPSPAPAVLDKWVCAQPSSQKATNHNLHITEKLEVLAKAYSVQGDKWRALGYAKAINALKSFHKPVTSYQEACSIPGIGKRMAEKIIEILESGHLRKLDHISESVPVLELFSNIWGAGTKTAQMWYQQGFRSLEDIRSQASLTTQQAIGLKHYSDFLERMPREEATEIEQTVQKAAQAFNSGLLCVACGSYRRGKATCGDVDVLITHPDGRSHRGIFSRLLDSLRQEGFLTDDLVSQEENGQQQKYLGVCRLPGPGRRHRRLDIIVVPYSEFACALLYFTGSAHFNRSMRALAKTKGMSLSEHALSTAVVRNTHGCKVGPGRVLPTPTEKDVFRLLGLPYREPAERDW

[4] = molecular target: Ku70/80 (Ku70 subunit);Ku70/80 (Ku80 subunit);Pol λ R57A/L60A (RL) (Homo sapiens;Homo sapiens;Homo sapiens, UniProt P12956;P13010;Q9UGP5 1-609;1-732;1-575, ||R57A;L60A); test: EMSA supershift; 20 nM Ku, 50 nM Pol λ-RL; mutant does not join DNA-bound Ku; EMSA: 50 mM Tris-HCl pH 7.5, 100 mM KCl, 2.5 mM MgCl2, 1 mM DTT, 4% glycerol, 0.05% Triton X-100, 0.1 mg/ml BSA, 10-20 nM DNA, 30 min at 25 °C; 4-5% native PAGE, 0.5x TBE, 4 °C; conditions: protein: recombinant;recombinant;recombinant, tags: FLAG;FLAG;FLAG, copies: 1;1;1, label: IRDye 700 at 5' end of S5, 5-nt gap (CTATT of S4 unpaired), blunt outer ends
Chain of Ku70/80 (Ku70 subunit);Ku70/80 (Ku80 subunit);Pol λ R57A/L60A (RL) (P12956 whole entry, chain 1 of 3): as the sequence (P12956 whole entry, chain 1 of 3) above
Chain of Ku70/80 (Ku70 subunit);Ku70/80 (Ku80 subunit);Pol λ R57A/L60A (RL) (P13010 whole entry, chain 2 of 3): as the sequence (P13010 whole entry, chain 2 of 3) above
Chain of Ku70/80 (Ku70 subunit);Ku70/80 (Ku80 subunit);Pol λ R57A/L60A (RL) (Q9UGP5 whole entry R57A/L60A, chain 3 of 3): as the sequence (Q9UGP5 whole entry, chain 3 of 3) above, with R57A, L60A counted along it

| Binder | binding result [1] | binding result [2] | binding result [3] | binding result [4] |
| --- | --- | --- | --- | --- |
| 5nt-gapped dsDNA 30-mer (dsDNA) DNA 1: ACTGGCCGTCGTTCTATTGTACTCACTGTGATC DNA 2: GATCACAGTGAGTAC DNA 3: AACGACGGCCAGT | binds | binds | binds | – |
| 5nt-gapped dsDNA 33-mer (dsDNA, 5'-phosphate on the 13-mer) DNA 1: ACTGGCCGTCGTTCTATTGTACTCACTGTGATC DNA 2: GATCACAGTGAGTAC DNA 3: AACGACGGCCAGT | – | – | – | no binding |
